Assay: yeast display, Sf9 membrane polyspecificity reagent, FACS + sequencing; frameworks hold sequencing errors
Procedure, shortened: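 Nanobodies came from a synthetic yeast display library in Saccharomyces cerevisiae BJ5465, induced with galactose for 36–48 hours and stained for 1 hour at 4 °C with 10% biotinylated, detergent-solubilized Sf9 membrane reagent. Cells were enriched on streptavidin microbeads and then FACS-sorted, with low and high (top ~1%) gates set on anti-HA fluorescence for expression and streptavidin fluorescence for reagent binding. Each polyreactivity label reflects the gate a clone came from. Genes were amplified by colony PCR, sequenced by MiSeq 2 × 250 and filtered by CDR length.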

Sequence | polyreactivity (PSR sort gate)
QVQLVESGGGLVQAGGSLRLSCAASGSTFYAKAMGWYRQAPGKERELVATINRRGNTYYADSVKGRFTISRDNAKNTVYLQMNSLKPEDTAVYYCAADYRRYGSYDYWGQGTQVTVSS | low polyreactivity
QVQLQESGGRLVQAGVSLRLSCAASGSIYDDTYMGWYRQAPGKERELVATIDSGSTTNYADSVKGRITISRDNAKNTVYLQMNSLKPEDTAVYYCAAADSHIDYFDYWGQGTQVTVSS | low polyreactivity
QVQLVESGGGLGQAGGSLRLSCAASGSIIKPYAMGWYRQAPGKERELVAAIRSSGGRTNYADSVKGRFTISRDNAKNSVYFQMNSLKPEDTGVYYCAAGYVSYWYYRYDYWGQGTQVTVSS | high polyreactivity
QLQLVESGGGLVQAGGSLRLSCAASGFTFRWYVMGWYRQAPCKQRELVASIRSGGSTYYADSVKGRFTISRDNAKNTVYLQMNSLKPEDTAVYYCAARFGRDRYYYWGQGTQVTVSS | high polyreactivity
QVQLVESGGGLVQAGGSLRLSCAASGSTFYTNDMGWYRQAPGKERELVAAITSAGNTNYADSVKGSFTISRDNAKNTVYLQMNSLKPEDTAVYYYYYYQYDYWGQGTQVTVSS | low polyreactivity
QVQLVESGGGLVQAGGSLRLSCAASGRIFQWYAMGWYRQAPGKERELVAAIRNGGTTNYADSVKGRFTISRDNAKNTVYLQMNSLKPEDTAVYYCNADKYRTWVFQPRYPGGYWGQGTQVTVSS | low polyreactivity
QVQLVESGGGLVQAGGSLRLSCAASGSIFVWYAMGWYRQAPGKERELVAAINWSGGRTYYADSVKGRFTISRDNAKNTVYLQMNSLKPEDTAVSYCNKVVPGYSAAKYDYWGQGTQVTVSS | high polyreactivity
QVQLVESGGGLVQAGGSLRLSCAASGRIFGQNAMGWYRQAPGKERELVASITTSGSSTNYADSVKGRFTISRDNAKNTVYLQMNSLKPEDTAVYYCAADYVSPDPDELHDYSGYYYWGQGTQVTVSS | high polyreactivity
QVQLVESGGGLVQAGGSLRLSCAASGSTFTTNVMGWYRQAPGKERELVAAISWSSGSTYYADSVKGRFTISRDNAKNTVYLQMNSLKPEDTAVYYCAARLVIFYPYSRYYYWGQGTQVTVSS | high polyreactivity
QVQLVESGGGLVQAGGSLRLSCAASGFTFAFYAMGWYRQAPGKERELVAAISRRGGSTTYADSVKGRFTISRDNAKNTVYLQMNSLKPEDTAVYYCAAGWRGGRYRYFAYDYWGQGTQVTVSS | high polyreactivity
QVQLVESGGGLVQAGGSLRLSCAASGSIFNPYDMGWYRQAPGKERELVAAIDWSGGSTYYADSVKGRFTISRDNAKNTVYLQMNSLKPEDTAVYYCNAESYQDTLFGADNDYDYWGQGTLVTVSS | low polyreactivity
QVQLVESGGGLVQAGRSLRLSCAASGITFGRNTMGWYRQAPGKERELVAAIDSGGNTYADSVKGRFTISRDNAKNTVYLQMNSLKPEDTAVYYCAVDGGEFSSYGYWGQGTQVTVSS | low polyreactivity
QVQLVESGGGLVQAGGSLRLSCAASGFTFHVNTMGWYRQAPGKERELVAAISRSGGSTYYADSVKGRFTISRDNAKNTVYLQMNSLKPEDTAVYYCATPSPGYTYDPRTQEENDYWGQGTQVTVSS | low polyreactivity
QVQLVESGGGLVQAGGSLRLSCAASGIIFGIYARGWYRQAPGKERELVAAIRYRGGNTNYADSVKGRFTISRDNAKNTVYLQMNSLKPEDTAVYYCAAKRFADPYYYWGQGTQVTVSS | high polyreactivity
QVQLVESGGGLVQAGGSLRLSCAASGRNFSYYVMGWYRPAHGKERELVAAITSGGSTNYAHSVKGRFTISRDNAKNTVYLQMNSLKPEDTAVYYCNRAYTYINRLYGYWGQGTQVTVST | high polyreactivity
QLQHVESGGGLVQAGGSLRLTCAASGRTFGYYAMGWYRQAPGKERELVAAITSGGRTYYADSVKGRFTISRDNAKNTVYLQMNSLKPEDTAVYYCNAPPRWCSRVAWYEYWGQGTQVTVSS | high polyreactivity
QLQLVESGGGIVQAGGSLRLSCAPSGRIFFPNAMGSYRQAPGTERELVAGISIGGSTNYADSVKGRFTISRDNAKNTVYLQMNSLKPEDTAVYYWAARSPFGRWRDYWGQGTQVTVSS | low polyreactivity
QVQLVESGGGLVQAGGSLRLSCAASGIIFYRNARGWYRQAPGKERELVAAISSRGGNTYYADSVKGRFTISRDNAKNTVYLQMNSLQPEDTAVYYCARDSYSLSRTYDSWGQGTQVTLSS | high polyreactivity
QVQLVESGGGLDQAGGSLRLSCAASGLIFQVYAMGWYRQAPGKERELVAAISRSGGRTYNADSVKGRFTISRDNAKNTVYLQMNSLKPEDTAVYYCAAESYVDYPRWYDYWGQGTQVTVSS | high polyreactivity
QDQLVESGGGLLQAGGSLSLSCAASGFTIYGYAMVWYRQAPGKERELVAAITNSGGRTYYADSVKGRFTISRDNAKNSVYLQMKSLKPEFTAVYFCAVDDLRGYDYWGQGTQVTVSS | low polyreactivity
QVQLVESGGGLVQAGGSLRLSCAASGSIFVTYAMGWYRQAPGKERELVAVITWGGGSTYYADSVKGRFTISRDNAKNTVYLQMNSLKPEDTAVYYCAKDSYYYRRDVTVDYWGQGTQVTVSS | low polyreactivity
QVQLVESGGGLVQAGGSLRLSCAPSGRIFTEYVMGWYRQAPGKERELVAAAITRGGSTNYADSVKGRFTISRDNAKNTVYLQMISLKPEDTAVYYFNKDDWPFSRQLYTGKYDSWGQGTQVTVSS | low polyreactivity

Sequence | polyreactivity (PSR sort gate)
QVQLVESGGGLVQAGGSLRLSCAASGNIFFTNAMGWYRQAPGKERELVATISFRGTSTYYADSVKGRFTISRDNAKKTVYLQMNSLKPEDTAVYYCAARYSVFHRARVNLLGWGLYYWGQGTQVTVSS | low polyreactivity
QVQLVVSGGGLVQAGGSLRLSWAASGIIFYEYAMGWYRQAPGTERELVAAITWSGRTYADSVKGRFTISRDNAKNTVYLQMNSLKPEDTAVYYCNAVYFGGPFFGQYNYWGQGTQVTVSS | low polyreactivity
QVQLVESVGGLVQAGGSLRLSCAASGSIFFTYTMGWYRQAPGKERELVAAISSGGITNYADSVKGRFTISRDNAKKTVYFQMNSLKPEDTAVYYCAVDGGEFSSYGYWGQGTQVTVSS | low polyreactivity
QVQLVESGGGLVQAGGSLRLSCAASGSTFWIYPMGWYRQAPGKERELVAAISNGDSTNYADSVKGRFTISRDNAKNTVYLQMNSLKPEDTAVYYCARQYRIFKTFKYDYWGQGTQVTVSS | low polyreactivity
QVQLVESGGGLVQAGGSLRLSCAASGSIFHPYTMGWYRQAPGKERELVAAISWSGGNTNYADSVKGRFTISRDNAKNTVYLQMNSLKPEDTAVYYCNKATNLSGGYDSWGQGTQVTVSS | low polyreactivity
QVQLVESGGGLVQAGGSLRLSCAASGRTFGRNAMGWYRQAPGKERELVAAISDRGASTYYADSVKGRFTISRDNAKNTVYLQMNSLKPEDTAVYYCAAVFWVDILPGDYWGQGTQVTVSS | low polyreactivity
QVQLVESGGGLVQAGGSLRLSCAASGRTFGYNAMGWYRQAPGKERELVAAIRYSGGSTYYADSVKGRFTISRDNAKNTVYLQMNSLKPEDTAVYYCAAYCLFSSYGYDYWGQGTQVTVSS | high polyreactivity
QVQLVESGGGLVQAGGSLRLSWAASGYTFGKNAMGWYRQAPGKERELVAAISRSGGSTFYADSVKGRFTISRDNAKNTVYLQMNSLKPEDTAVYYCAAESYGYSAPYDYWGQGTQVTVSS | high polyreactivity
QVQLVESGGGLVQAGGSLRLSCAASGSIFYSNAMGWYRQAPGKERELVADISWSDGSTYYADSVKGRFTISRDNAKNNVYLQMNSLKPEDTAVYYCARKAGYSYFRRYDYWGQGTQVTVSS | low polyreactivity
QVQLVESGGGLVQAGGSLRLSCAASGRIFYYYTMGWYRQAPGKERELVAAITSNGGSTYYADSVKGRFTISRDNAKNTVYLQMNSLKPEDTAVYYCAADSYSYRYYYWGQGTQVTVSS | high polyreactivity
QVELVESGGGLVQAGGSLRLSCAASGFTFQEYAMGWYRQAPGQETELVAAISTSGDYTYYADSVKGRFTISRDNAKHTVYFQMNSLKPEDTAVYYCATGVDTYSLTVEHDSWGQGTQLTVSS | low polyreactivity
QVQLVESGGGLVQAGGSLRLSCAASGFIFGYYAMGWYRQAPGKERELVAAISWNGGSTYYADSVKGRFTISRDNAKNTVYLQMNSLKPEDTAVYYCAADGYETYYDYDYWGQGTQVTVSS | high polyreactivity
QVQLVESGGGLVQAGGSLRLSCAASGRTFFVNAMGGYRQAPGKERELVAAITWSGGSTSYADSVKGRFTISRDKAKNNVSLQLNSLKPEDTAVYYCAAEYYSYSHSYYYYGYEYWGQGTQVNVSS | high polyreactivity
QVQLVESGGGLVQAGGSLRLSCAASGSIFEEYAMGWYRQAPGKERELVARIDESGGSTYYADSVKGRFTISRDNAKNTVYLQMNSLKPEDTAVYYCAAERYSDSWGFYSVDEGSWEMDYWGQGTQVTVSS | low polyreactivity
QVQLVESGGGLVQAGGSLRLSCAASGRIFYSYAMGWYRQAPGKEREFVAAISYSGGSTYYADSVKGRFTISRDNAKNTVFLQMNSLKPEDTAVYYCAAKVKFYTYYYWGQGTQVTVSS | high polyreactivity
QVQLVDSGGGLVQAGGSLRLSCAASGSIFYNYVMGWCRQAPGKEREMVAAISSGGGTNYADSVKGRFTISRDNAKYTVYLQMNSLKPEDTAVYYCAKASAYGLANDYDYWGQGTQVTVSS | low polyreactivity
QVQLVESGGGLVQAGGSLRLSCAASGGIFRKYVMGWYRQAPGKERELVAAISTSGGSTYYADSVKGRFTISRDNAKNSVYLQMNSLKPEDTAVYYCAADILYFYGPRVFEFNYWGQGTQVTVSS | high polyreactivity
QVQLVESGGGLVQAGGSLRLSCAASGSTFYAYAMGWYRQAPGTERELVAAITTIGGRTYYADSVKGRFTISRDNAKNTVYLQMNSLKPEDTAVYYCAADIRSNRLYDGGYWGQGTQVTVSS | low polyreactivity
QVQLVESGGGLVQAGGSLRLSCAASGRILARYAMGWYRQAPGKERELVAAITSRGGSTSYADSVKGRFTISRDNAKNTVYLQMNSLKPEDTAVYYCAKGERSANGGLFAGRHGYWGQGTQVTVSS | low polyreactivity
QVQLVESGGGLVQAGGSLRLSCAASGGTFPVYALGWYRQAPGKERELVAAISYSGVTTYYADSVKGRFTISRDNAKNTVYLQMNSLKPEDTAVYYCNADWRRWYIFSYDYWGQGTQVTVSS | low polyreactivity
QVQIVESGGGLVQAGGSLRLSCAASGSTFNRNAMGWNRQATGKERELVAAITRSASSTYYADSVKGRFTISRDNAKNTVYLQMNSLKPEDTAVYYCAVEYVAYLYRMDYWGQGTQVTVSS | high polyreactivity
